# Measurements as given in patent US20230399408A1 (AB THERAPEUTICS, published 2023).
# Experiments:
# cMET [1] = biological target: cMET (UniProt P08581); test: separate experiment, method not restated (BLI in this example), cMET binding
# [2] = biological target: EGFR mutant C797S on BaF3 cells (UniProt P00533); test: flow cytometry on EGFR mutant C797S-BaF3 cells, goat anti-human Fc-FITC
# [3] = biological target: c-MET-His tag protein (human) (UniProt P08581); test: titration ELISA, c-MET-His coated
# EGFR = EGFR (UniProt P00533); test: separate experiment, method not restated (BLI in this example), EGFR binding
# [4] = biological target: EGFR on NCI-H1975 cells (human) (UniProt P00533); test: flow cytometry on H1975 cells, dilutions 2.04e-4 to 400 nM, goat anti-human Fc-FITC; whole-cell binding, the cells also carry cMET
# cMET [5] = biological target: cMET (UniProt P08581); test: BLI (Probelife)
# [6] = biological target: cMET on NCI-H1975 cells (human) (UniProt P08581); test: flow cytometry competition on H1975.HGF cells, streptavidin-PE; ligand biotinylated HGF; fit value of a nearly flat control curve
# [7] = biological target: EGFR mutant C797S on BaF3 cells (UniProt P00533); test: flow cytometry on EGFR mutant C797S-BaF3 cells, goat anti-human Fc-FITC; fit value of a flat control curve; the drawn table is identical to that of FIG. 23C
# [8] = biological target: cMET on NCI-H1975 cells (human) (UniProt P08581); test: flow cytometry competition on H1975 cells, streptavidin-PE; blocked ligand biotinylated HGF; fit value of a nearly flat control curve (about 6500 to 6200)
# [9] = biological target: EGFR on NCI-H1975 cells (human) (UniProt P00533); test: flow cytometry competition on H1975.HGF cells, streptavidin-PE; blocked ligand biotinylated EGF; fit value of a control curve that rises instead of falling
# [10] = biological target: EGFR on NCI-H1975 cells (human) (UniProt P00533); test: flow cytometry on H1975 cells, dilutions 2.04e-4 to 400 nM, goat anti-human Fc-FITC; fit value of a flat control curve, beyond the tested range
# [11] = biological target: EGFR on NCI-H1975 cells (human) (UniProt P00533); test: flow cytometry on H1975.HGF cells, goat anti-human Fc-FITC; fit value of a flat control curve; the drawn table is identical to that of FIG. 23B
# [12] = biological target: EGFR mutant C797S on BaF3 cells (UniProt P00533); test: flow cytometry competition on EGFR mutant C797S-BaF3 cells, streptavidin-PE; blocked ligand biotinylated EGF; fit value of a flat control curve
# human cMET = biological target: T1, human cMET (human, UniProt P08581 25-932); test: binding ELISA, plate coated with human cMET at 1 ug/mL, clone at 10 ug/mL, biotinylated anti-c-Myc 9E-10 and streptavidin detection
# T1 construct: Coated antigen of the cross-reactivity ELISA; also called human antigen; anti-Hu
# Description: A high binding ELISA plate was coated with 1 μg/mL (diluted in 1×PBS) human or monkey antigens and kept at 4° C. overnight. On the next day, the plate was blocked with a blocking buffer (4% non-fat milk in 1×PBS) for 1 hour at 37° C. After blocking, the plate was washed three times with PBST. The antibody samples to be tested were diluted in PBS and then added to the corresponding wells (10 μg/mL). The plate was incubated at 37° C. at RT for 1 hour. After the incubation, the plate was washed three times with the PBST. Next, a secondary antibody (biotinylated anti-c-Myc antibody 9E-10, diluted at 1:500) was added to the wells and the plate was incubated at 37° C. at RT for 1 hour. The plate was then washed three times with PBST. Afterwards, streptavidin-RP, diluted at 1:1000, was added to each well and then the plate was incubated at 37° C. at RT for 1 hour. After the incubation, the plate was washed four times with PBST. After washing, the plate was developed by adding the Amplex reagent substrate and then the luminescent signal was measured at 530 nm and 590 nm in a SpectraMax plate reader.
# c-MET-His tag protein = biological target: T2, c-MET-His tag protein (human, UniProt P08581 25-932); test: BLI (Probelife Gator), cMET-His on HIS probe saturated with 1H1-cMET-VHH-Fc, second antibody at 5 ug/ml
# T2 construct: also called cMET-HIS tagged; not shown: His tag
# Description: Briefly, a baseline was established using HIS probes in Quantitation (Q) buffer (a phosphate buffered saline solution with bovine serum albumin to decrease non-specific and background signal). The antigen (cMET-HIS tagged) to the HIS probe was added in 5 μg/ml cMET solution in Q buffer. HIS probes in Q buffer were used to return to the baseline. […] Finally, the secondary antibody was associated through HIS Probes in 5 μg/ml of antibody diluted in Q buffer.
# Sequence of cMET (P08581 25-932): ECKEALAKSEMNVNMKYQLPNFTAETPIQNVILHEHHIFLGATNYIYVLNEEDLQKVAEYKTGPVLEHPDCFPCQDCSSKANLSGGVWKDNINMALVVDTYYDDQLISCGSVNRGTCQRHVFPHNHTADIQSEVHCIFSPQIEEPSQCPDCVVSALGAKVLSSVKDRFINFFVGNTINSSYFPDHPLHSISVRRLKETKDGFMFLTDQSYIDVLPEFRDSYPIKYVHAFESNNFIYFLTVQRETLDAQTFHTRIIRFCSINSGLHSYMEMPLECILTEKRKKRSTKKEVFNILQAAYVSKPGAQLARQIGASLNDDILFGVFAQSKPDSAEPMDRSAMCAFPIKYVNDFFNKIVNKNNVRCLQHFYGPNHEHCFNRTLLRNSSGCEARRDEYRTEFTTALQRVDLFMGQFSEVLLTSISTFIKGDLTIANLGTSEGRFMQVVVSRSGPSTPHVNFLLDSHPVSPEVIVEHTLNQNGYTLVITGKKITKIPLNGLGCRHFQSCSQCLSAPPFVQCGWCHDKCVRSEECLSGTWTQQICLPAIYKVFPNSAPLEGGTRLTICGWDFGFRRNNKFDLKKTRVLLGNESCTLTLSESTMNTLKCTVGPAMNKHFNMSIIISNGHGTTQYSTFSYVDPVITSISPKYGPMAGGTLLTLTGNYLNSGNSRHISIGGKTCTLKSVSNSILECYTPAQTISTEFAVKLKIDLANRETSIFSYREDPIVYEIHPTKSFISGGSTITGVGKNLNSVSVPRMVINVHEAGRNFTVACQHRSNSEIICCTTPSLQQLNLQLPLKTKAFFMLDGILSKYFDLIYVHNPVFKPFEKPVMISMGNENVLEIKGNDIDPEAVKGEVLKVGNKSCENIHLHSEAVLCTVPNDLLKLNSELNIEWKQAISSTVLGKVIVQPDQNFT
# Sequence of cMET on NCI-H1975 cells (human) (P08581 25-1390): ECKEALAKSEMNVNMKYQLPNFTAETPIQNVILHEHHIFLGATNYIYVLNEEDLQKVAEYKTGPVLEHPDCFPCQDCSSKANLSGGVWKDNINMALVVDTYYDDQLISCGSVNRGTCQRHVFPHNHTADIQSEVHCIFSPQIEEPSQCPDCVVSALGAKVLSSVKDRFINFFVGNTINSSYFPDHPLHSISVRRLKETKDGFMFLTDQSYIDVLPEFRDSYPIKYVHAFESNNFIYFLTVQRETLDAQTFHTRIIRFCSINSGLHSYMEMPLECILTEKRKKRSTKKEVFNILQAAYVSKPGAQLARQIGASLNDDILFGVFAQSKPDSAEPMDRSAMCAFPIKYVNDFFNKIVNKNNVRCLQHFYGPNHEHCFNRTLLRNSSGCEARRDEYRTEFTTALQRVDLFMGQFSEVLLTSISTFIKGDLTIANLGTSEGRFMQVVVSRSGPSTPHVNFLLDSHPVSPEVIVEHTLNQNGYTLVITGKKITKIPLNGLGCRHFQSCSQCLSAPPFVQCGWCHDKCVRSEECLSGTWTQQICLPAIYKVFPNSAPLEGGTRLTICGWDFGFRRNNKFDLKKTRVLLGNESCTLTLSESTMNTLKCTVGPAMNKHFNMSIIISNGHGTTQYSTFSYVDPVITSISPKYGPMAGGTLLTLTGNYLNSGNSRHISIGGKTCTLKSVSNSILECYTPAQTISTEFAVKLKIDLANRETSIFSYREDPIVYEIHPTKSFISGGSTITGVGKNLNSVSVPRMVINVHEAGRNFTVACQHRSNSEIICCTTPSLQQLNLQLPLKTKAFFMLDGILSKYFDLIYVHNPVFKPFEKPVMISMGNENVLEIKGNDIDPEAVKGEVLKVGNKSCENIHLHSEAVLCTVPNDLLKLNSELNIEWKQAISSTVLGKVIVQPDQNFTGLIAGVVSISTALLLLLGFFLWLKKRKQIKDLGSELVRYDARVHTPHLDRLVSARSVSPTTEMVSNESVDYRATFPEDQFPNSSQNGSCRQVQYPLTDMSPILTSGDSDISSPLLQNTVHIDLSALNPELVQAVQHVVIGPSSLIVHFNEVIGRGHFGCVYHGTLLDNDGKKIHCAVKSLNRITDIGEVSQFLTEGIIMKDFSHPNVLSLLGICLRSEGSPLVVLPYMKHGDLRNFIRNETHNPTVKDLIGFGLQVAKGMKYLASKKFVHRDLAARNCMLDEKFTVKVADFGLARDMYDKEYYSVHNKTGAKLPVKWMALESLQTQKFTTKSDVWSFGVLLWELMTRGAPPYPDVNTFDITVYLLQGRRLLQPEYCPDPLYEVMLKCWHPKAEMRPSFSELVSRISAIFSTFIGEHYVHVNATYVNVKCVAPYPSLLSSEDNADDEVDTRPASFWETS
# T1 sequence (P08581 25-932): as the sequence (P08581 25-932) above
# Sequence of c-MET-His tag protein (human) (P08581 25-932 limits assumed): as the sequence (P08581 25-932) above
# T2 sequence (P08581 25-932 limits assumed): as the sequence (P08581 25-932) above
molecule,measurement,setting,value
JNJ372 analog (bispecific antibody),Kd,cMET [1],0.432 nM
same,EC50 (read off the curve),[2],3 nM
same,EC50,[3],4.89 ng/mL
same,Kd,EGFR,0.689 nM
same,EC50,[4],0.46 nM
same,Kd,cMET [5],0.405 nM
Neg.control (antibody),EC50,[6],1.08 nM
same,EC50,[7],0.0262 nM
same,EC50,[8],0.112 nM
same,EC50,[9],26.4 nM
same,EC50,[10],11.1 µM
same,EC50,[11],26.4 nM
same,EC50,[12],0.0262 nM
"1A12 (VHH, it is not the VHH-Fc fusion m11; also called cMET-1A12; clone 1A12) VHH: QVQLVESGGGLVQPGGSLRLSCAASGFTFNSYWMYWVRLAPGKGIEWVSATDTRGQNTYYTDSVKGRFTISRDNAKNMVSLQMNNLKSEDTAVYYCALGNRWGTFPNRGPGTLVTVSS",binding result,human cMET,binds
"cMET-1A12 VHH-Fc (Fc fusion, not shown: hinge and Fc of the VHH-Fc) QVQLVESGGGLVQPGGSLRLSCAASGFTFNSYWMYWVRLAPGKGIEWVSATDTRGQNTYYTDSVKGRFTISRDNAKNMVSLQMNNLKSEDTAVYYCALGNRWGTFPNRGPGTLVTVSS",binding result,c-MET-His tag protein,binds
